The DeepSol protein solubility set

Assay: soluble on expression in E. coli; label from the status in PepcDB or PDB records

| Sequence | soluble on expression in E. coli |
| --- | --- |
| MTAFSTLNVLPPAQLTNLNELGYLTMTPVQAAALPAILAGKDVRVQAKTGSGKTAAFGLGLLQQIDASLFQTQALVLCPTRELADQVAGELRRLARFLSNTKILTLCGGQPFGMQRDSLQHAPHIIVATPGRLLDHLQKGTVSLDALNTLVMDEADRMLDMGFSDAIDDVIRFAPASRQTLLFSATWPEAIAAISGRVQRDPLAIEIDSTDALPPIEQQFYETSSKGKIPLLQRLLSLHQPSSCVVFCNTKKDCQSVCDALNEVGQSALSLHGDLEQRDRDQTLVRFANGSARVLVATDVAARGLDIKSLELVVNFELAWDPEVHVHRIGRTARAGNSGLAISFCAPEEAQRANIISDMLQIKLNWQTLPANSSIVPLEAEMATLCIDGGKKAKMRPGDVLGALTGDIGLDGADIGKIAVHPAHVYVAVRQAVAHKPWKQLQGGKIKGKTCRVRLLK | soluble |
| MGSDKIHHHHHHMKMLVGKIPSELLAKILEKLKPGDKVIVGPKVGIDATAIDFGDYVLVASTDPITGTEEKIGFYAVNINANDVATFGARPKWFLVTILLPEGSEFNDVITIMDEVREVAEGMGISIVGGHTEVTPGLKKPIVVGTMLGEVEKENLVVPNPRPGDAIILTKGAGIEGTSIIAHEREEELKGVFGSNFVERAKAFINEISIVREALLSREFATAMHDPTEGGIANGLHEMADINGLGFRIFANKVIIREETRKICHFYDLDPLALISSGALLISTPRDHAKFLIERLLSHGIQASIIGEFLAEKKRVIIENGAERPLKRPESDELWKVV | not soluble |
| MVRFRREGVRLDQAVAEALSVSRAKAQAWIQAGRVRVGDRVVLKPAYRLKGEEVAVEPVEEAPMVLPEDLPIPILYEDEDVLALNKPPGLLTHPAPGVYSGTVVNLLLARYYGPVEKGPPELVRPGIVHRLDKDTSGVLVVAKHGGDLEGLARAFRDRLVMKRYLAITEGHPREGVLIAPIGRHPRERHKMHVGGLAARYAETEFQVLATAGPYALVEARPHTGRTHQIRVHLKYLGAPILGDELYGRKSPHIGRQALHAYELRIPHPRTGRILELLAPVPQDMAAAWEALGGRWPEEVVREGYAGAQ | soluble |
| MGSDKIHHHHHHDIRPVGSVIPQTAEEYRALLARAYLNVPNDRGLACLRSDEMLVNDNEYDRNSYGDIERWNDVSPFPGTSQFTWSNFYNVLFIANQVIESQKEITEGTPEVVNQLVGEAHLLRAYLHFVLVNLHGQPYTKSGALNSKSIPLKLDTDLEKTLGRNTVEEVYTSILSDIEHARELINKEKWETVFSYRFNVLSVDALQSRVSLYMGAWPKCLESAEAVLAKKSVLVDMNETPLALPNHFESVESITALEQVMGSSVNNAVWVPATFLALYQEGDKRLAAYFAAPDENGNRKSSKGGKREFSCTFRVGELYLNAAEAAANMDKLPHARMRLLELMRKRYTPEAYDKKENAVNVMDKNALISEILNERARELAFEGHRWFDLRRTTRPRMVKVLQGKTYILEQDDPRYTIPIPRDAIAANPGLAN | not soluble |
| MSLTLSDKDFEVLRDFIYNHCGIYFHTSKKYFLESRITRRIEATSSPNLMTYMGLLKSGPGKSDELLKLLTEITTNETCFFRNPPQLKALENVFLPEIVAAKGKIGFRKLRIWSAGSSSGEEAYTMAMLLLEKRATILKDWIIEIVGTDISETVLAQAREGVYNAYSVRNTPDYYKKKYFRQEPGERYVLSPDVKKLVSFNHLNLYEDAKMVFMKSFDFIFCANVLIYFDLASKTKVVQHYYNNLQPYGYFFVGQSESLHGVNDKFKTVHFPGGFAYKKEGHHHHHH | soluble |
| SKMTYADGTPIANIKSDLIRTRINGDQMSPLLKKAIISTEDEYFEEHHGVVPKALVRALISDATGIGGSSGGSTLTQQLVKQQILTDETTFKRKANEILLALRIEKYFSKDEIVTTYLNVSPFGRNNKGENIAGVEEAAKGLFGKSAKDLNLPQAAFIAGLPQSPIVYTPYTNT | not soluble |
| MNFRPIAGIDVGKFFSEMAILSPSNEVIARMKIRHDSSTDVERAVELLKKTEKDFDSRPFVVMESTGHYHKILFHSLYKAGFEVSVINPIQTDSIKNIGIRKVKNDKVDARKIALLYRFQELKIQYPERYGCWTLARNKACEVWYNRKGLAAALR | not soluble |
| MEMTMEQEPLNGWPQPYRLLDAQPYWDALQDEKLTYQQCVACRQSVWPAHSRCPHCSSDQLVWQASSGRATVYSFSTVTRGPTPVWASIVPYTVGFVEMDEGYFLFTQIEGPPGSIGVGDKVQVRFVRRGAQILPVFVSADLPA | not soluble |
| MSLGHAKEVKIGVILGFTGPIESLTPSMADGAELAMKEVTDSGLLLDGATVTSVRADSTCVDAAAATAAAERLVTSDKVDGIMGADCSGVTGAILSNVAVPNGVVMISPSATSPALSTADDNGLFFRTAPSDARQGVVMTEVLMEEGIKEVALTYTNNDYGKGLADSFQAAFEAAGGTVTISAAHEDGKADYSAEVGALAAAGGDRLVVAGYVDQGGSGIVRSAIDSGAFDTFHFPDGMIGAKLEENFGDEIEGSSGQHPGTDSPGVAKFSEMVGGAFDSTSPFTPEAYDAAALIMLAMQAANSKDSGDYKDHVMHVANAPGEKIYPGELAKALQIIKDGGEVDYVGATAVELIGPGESAGNYRQITIEGGKITTAKFREGHHHHHH | soluble |
| MKKINAIILLSSLTSASVFAGAYVENREAYNLASDQGEVMLRVGYNFDMGAGIMLTNTYNFQREDELKHGYNEIEGWYPLFKPTDKLTIQPGGLINDKSIGSGGAVYLDVNYKFVPWFNLTVRNRYNHNNYSSTDLSGELDNNDTYEIGTYWNFKITDKFSYTFEPHYFMRVNDFNSSNGKDHHWEITNTFRYRINEHWLPYFELRWLDRNVEPYHREQNQIRIGTKYFF | soluble |
| MLKANVFCAGPVEALILDWAGTTIDFGSLAPVYAFMELFKQEGIEVTQAEAREPMGTEKSEHIRRMLGNSRIANAWLSIKGQASNEEDIKRLYDLFAPIQTRIVAQRSQLIPGWKEVFDKLIAQGIKVGGNTGYGPGMMAPALIAAKEQGYTPASTVFATDVVRGRPFPDMALKVALELEVGHVNGCIKVDDTLPGIEEGLRAGMWTVGVSCSGNEVGLDREDWQALSSDEQQSYRQHAEQRLFNAGAHYVIDSVADLETVITDVNRRLARGEKP | soluble |
| MEERDRVKITDRLARPLRDLRLSVIDQCNFRCVYCMPAEVFGPNFRFLAEDQLLTVEEMALLAECFVELGVEKIRLTGGEPLLRRDLDALIERLSALPGLRDIGLTTNGVHLVKWAQRLKAAGLKRVNVSLDALDDDIFRKMNGIGVGAAPVLKGIEAALAAGLGVKVNMVVKKGWNDSQIVPMAAYFKDLGIPLRLIEFMDVGTTNGWDYSHVVTKKEMYEQINAMHPLEPVEKEYFGEVASRYRYAGTNVEVGFIASVTETFCQSCTRARISADGKLYTCLFASKGVSLKDKLRAGEGKEEIKALITTVWNRRTDRYSEERTAETAKQRPKIEMSYIGG | not soluble |
| MSAYPKSYNPFDDDGEDEGARPAPWRDARDLPDGPDAPADRQQYLRQEVLRRAEATAASTSRSLALMYESEKVGVASSEELARQRGVLERTEKMVDKMDQDLKISQKHINSIKSVFGGLVNYFKSKPVETPPEQNGTLTSQPNNRLKEAISTSKEQEAKYQASHPNLRKLDDTDPVPRGAGSAMSTDAYPKNPHLRAYHQKIDSNLDELSMGLGRLKDIALGMQTEIEEQDDILDRLTTKVDKLDVNIKSTERKVRQL | soluble |
| RPFMQKRAQKALPHVSTGADALVGRKVLVTETIDPTTDKGRVAVDGDVWTARSLTGEVIEKGMRVEIVSYESIVLNVVVLGNDKQ | not soluble |
| SLDITLVFPHQLFADHPAIQAGRTVALIEDPLLFGTDPQWPLRMHHQRRLLHRASMTVYAEQLRGRGFNVIHQRHDAAPDTQGHLQLLHSAGYRHVHLVDLVDHWLERRLNAFAESVALRVSVLPTPMLLTPADVLEKHFGTGKKPLMAKFYEMQRTRLGVLMDAEGRPVGGRWSFDADNRKKLPKDISVPPIPVATPSTVVNTSRQQLAQENLPGVGKLDGFYYP | soluble |
| MQVDYQQLNGIALAYLGDAVYEPFIRQHLIESGFTKATKLHHHATHYVSAKAQAALIERMQAEEVLTPTEVDVFKRGRNAKSHTSAKHTDVVTYRISTGFEAVFGYLQLTQQADRIAELAQWCIKQVDEGRVSSVKLEHHHHHH | soluble |
| SMNNKEVELYGGAITTVVPPGFIDASTLREVPDTQEVYVNSRRDEEEFEDGLATNESIIVDLLETVDKSDLKEAWQFHVEDLTELNGTTKWEALQEDTVQQGTKFTGLVMEVANKWGKPDLAQTVVIGVALIRLTQFDTDVVISINVPLTKEEASQASNKELPARCHAVYQLLQEMVRKFHVVDTSLFA | soluble |
| MKPEKIDCNFKLIYCEDEESKGGRLEFSLEEVLAISRNVYKRVRTNRKHHHHHH | soluble |
| MMKKEKELLVAIASQKGGVGKSVFTVLLASVLHYRKDVRVAVVDCDSPQHSIALMRERDMENVMKNDDLKVNLYRQYERIRKPAYPVIKSDPEKGVEDLRRYMDEKGETFDIVLFDLPGTLRSEGVVHTVAAMDYIFVPLKADNIVMQSSLQFTKVLEEELIAKGNCNLKGIRLFWNMVDRRGRKNLYDAWNRVIHRMGLRLLSSHIPNTLRYNKEADPVCKGVFRSTLFPPDPRQEKDSGLPELVEAAFFGRDPGITLL | not soluble |
| MVENLKQLQERVAVSDGRAKADLVIKNGRIINVFSGEIMDGDIAIKNGYIAGIGSFPDAEKIIDAAGAFIAPGFIDAHVHVESAMVTPAEFARVLLPNGVTTIVTDPHEIANVAGEKGIEFMLEDAKGAPLDMFVMLPSSVPATEGEHNGETLHAEKLHPLYRHEKVIGLAEVMDFPSVAKGSDDILRKIIDAKKEGGRIDGHGAGLTSADLNNYLAVGIRTDHESTTAKEATDRLRAGMFVMLREGTVGRDLLQTIPAVSEKNSHRFCFCTDDKLINDLITEGSINYNIKLAIKNGIDPITAIQMATINAANCHNLPYLGAVAAGYQADIVFLTDIETVEISKVLKNGEVVVDNGVRNEAAFKQQAAVPFVSPPINHHVHLQDLALPLTKETCYVIGMQPNSLFTEKRIEQVTIQGGKFVPTVENDLLKMAVVERHHDTGCVGVGIVKGFGLTEGAIATTVAHDSHNIVAVGVSDEAMKAAIDHITQTGGGIAVVNGAGQVLHDLALPIAGLLSDKSYEEVENDLAGLLNAFKQISTANGFDPFLTLSFLTLPVIPELKLTDQGLFDFATFQIISNEVN | not soluble |
| MSPLTQFKFFLWFFSHFKVALIGYLKPKLIQLTDNEIVVRLPLTRRSRNHLHSMYFGALAVGADIAGGLHGFYHAKQAKCKVSLAFKSFQAQFLRRPESDVYFICTEGDVVKKMIEESKKSGERINKPIHIKAYINYLTHPEEIADFILELSLKVIKLEHHHHHH | soluble |
| MSLQDVDFHIPFPSRRSPDFERARADHLSWPRALGLIGTDAAAERHSRGGYADLAARFYPSATGADLDLGVDLMSWFFLFDDLFDGPRGEDPQETRKLTDAVAAALDGPLPTSAPPIAHGFADVWRRTCQGMSPAWRARSARHWRNYFSGYVDEAVSRHLNTPYDSAGHYLAMRRQTIGVQPTVDLAERSCHCEVPQRVFDSAVLFAMLQIATDTNLILNDIASLEKEEARGELNNMVFILMREHGWTRGRSIAHMQDGVRTRLEQFLLLEACLPKVYDTFELTAQERESAEKYRMDGVRSVIRGSYDWHRSSGRYAADYAEGHHHHHH | soluble |
| GPGSMMDCDHLLRLGMTAKKILENGKGILAADETPKTLGRRFEKLGITNTEENRRKFREILFSTKGIERYIGGVILNQETFEQTSGSGVPLTELLKKKGIEIGIKLDKGLIDYKEKEKISVGLEDLDLRCKSSAFKDATFAKWRSLFYFYDGIPSEDCINENCSILAKYAIICQKNGLVPIVEPEVFLEGDYSMKRSYEVTRQILSTLMKYLNYELVYIPGVLIKASYVTSGQLSNEKYTPKKVATFTLRALLSTIPCGIPGIVFLSGGHGSEDAIGFLNAINMERGCRTWSLSFSFARALTDGVLETWRGDDSNIEEAQKILLETSFKACRGAEGKLWDQE | soluble |
